Source: the domain aggregation screens of Martell et al. (2025)

Test: soluble fraction after stress (log2 fold change); higher = more stays soluble; pooled small domains, quantitative proteomics
Conditions: stress: pH 4
How it was run: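 With high-throughput quantitative proteomics, pooled custom libraries of small protein domains were measured after pH 4 stress. Each domain's soluble amount after the stress gives a fold change taken as aggregation propensity. Higher log2 values mean more of the domain stayed soluble.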

Going from “HMQFYSGLEARLMDPNTPEVFDDPISLMAFLQQKNISRVELEDNLLLPYLKEMAGQPIPKAELLEIIRK” to “HMQGDHELSQRILSYLSEQGGSSPLTDKASPEEIYRIFRVSKKKYKQALGNLYKSKSIIILADKIQLL”, the “soluble fraction (log2)” value rises from -2.19 to 0.195.

First: HMQGEDEILKIHEALEELAQIDARLVRVVEMRYFVGLSNQEIADSLGVTTRTVERDWEKARTFLFNALHP
Second: HMQGISGIERSLLDALAFEPAGLDALQARTGLDTPTLQALLMGLELQGHVARLPGSLFQRLVR
The “soluble fraction (log2)” value of the first is higher: -0.717 for the first, -1.35 for the second.

First: HMQGVTVPDLTRVSLEEAVATISSLGLRYEISDRRSNAAFPANYVLDQAPGANTIVKPNRKVYLTVNAA
Second: HMQGWREWDYSADLYINARVGGKIEPTENSPISRVYELDEPVSVVAFTSTRYFKLSSGDYIFAEYLSAQKV
The “soluble fraction (log2)” value of the first is higher: 0.381 for the first, -0.18 for the second.

First: HMQGYELKMYVTPDTKYSVAVYDAKNEMVSYTMGFSAKAPFGQEGEVLETVKLEFDKLAVGNYELKYWI
Second: HMQHYQFEVDEASSKKRLDVFLSENLPEISRSRLKKLIDEKRVTVNEMSRPAGYKVRVKEKIEFHIPPL
The “soluble fraction (log2)” value of the first is higher: -0.0121 for the first, -0.317 for the second.

Going from “HMQIAEAESLGQRLLQQSINNIVGRDEAITEERLNRVLSQYSLTGRDELMAQIGLGNRNSSLVAKAMYDI” to “HMQIKEVDYGTFISMTEDGEIGRVEIQQQENTILFTDEDETAVYKTAMVEDDQLTQRLYDAGISFYGEE”, the “soluble fraction (log2)” value falls from -0.35 to -0.784.

Compared with “HMQILVEGVEANQRLDLFLRARLTEFSRSRIQGLVKNGNVLVNGNIARQAYLVQVGDKIELDVPEPVA”, “HMQIMVVDEADRMLDMGFIPDIERIFQLTPFTRQTLFFSATMAPEIERITDTFLHSPERIEVAR” is lower in “soluble fraction (log2)” value: 0.112 for the first, -1.14 for the second.

First: HMQISDDGFILKIINEVVAENPKSISDYISGKEAAVGFLVGQIMKKTRGKANPKLVNEMLITELAKLKN
Second: HMQISDESSIAKIADEVISEFPSQVSEFRSGKEKVLQFLIGQVMKKTKGKANPQITAKILREKLS
The “soluble fraction (log2)” value of the first is lower: -0.393 for the first, 0.17 for the second.

“HMQISDSASVKTVVAEAIAANPKAVADFMNGKDTATRYLVGQVMKITKGQAKPELVNQLVLESLAELKEK” and “HMQISDSGELEKIVLQVIEENPKPAEQVRSGNEKAIGALVGGVMKATQGRADGGEVNRLLRQHLGL” are within 0.2 log units of each other in “soluble fraction (log2)” value: 0.226 for the first, 0.23 for the second.

Going from “HMQISDVSLIAKVIDDVIDNNVKSVSDYLEGNLNVLRFLVGQVMKETKGKANPQKATELLQEKLESLNN” to “HMQISLDTKLINLEFSVRANNVFRENQIFTLRDLTSHSKEDLMLMTNFGKTTLYEVNKKLEEHQLKLSQ”, the “soluble fraction (log2)” value falls from -0.386 to -1.53.

First: HMQISNEEELEKIIENVIESNPEKVKAYQSGKSGLIGFFMGQVMKESGGQANPNLVNQILKGKL
Second: HMQIYSQEIYDAQKVLKELGLYTSDLDGLNGPGTKRALRNFQSKSGLNADGVLGPLTKSALDKGEESYITV
The “soluble fraction (log2)” value of the first is higher: 0.109 for the first, -0.0943 for the second.

Going from “HMQKADFDYGDYVDLGLAMGRQSRQLREAVGIKLGIGYANSKRFYQRLQTFGISLAELKQAVEEAENDQQN” to “HMQKEMDIVLQINGKMRSNLKVSSTANDDEIIKTAIESDAYKKFSLGLRIQKTIIVPNRLINIVLEK”, the “soluble fraction (log2)” value rises from 0.149 to no less than 0.43.

“HMQKIYTIARGDTLSHIVAGTLKQQGIAYTTGELYRLVNVVAQYNDILNPNRIYTGHQLDLTPLYSED” and “HMQKLLGPFEDFVKIKLDKYPDTKAAQMHDWLKEHYPDFPEVTPKTVYNFVMYVRQRHNIPIPD” are within 0.2 log units of each other in “soluble fraction (log2)” value: -0.434 for the first, -0.276 for the second.

First: HMQKTVLAASVYERMKERIMDQYYPPGERLNIDALAIDLAVSPTPIREALARLAAERLITFEAYKGYRVSP
Second: HMQLEPLVTSVIPVNFAKASDISGTIKGKEVGLLSERGNITAENRTNVLIVKDIRKSVDEINAMVKRLD
The “soluble fraction (log2)” value of the first is lower: -0.637 for the first, 0.151 for the second.

For “HMQLFKFKNAMMELAKNKNITLDTAEKAIGLEAGFTELVARGVKELALSDVIKISKYFNTTMDSVLD”, the “soluble fraction (log2)” value was -0.995.
